What all share (conditions): protein: recombinant, tags: N-terminal His6 (pHIS-parallel1), label: 3' fluorescein (5-thiosemicarbazide)
For data set [1], the target named is T1, dNELF-E (Drosophila, UniProt P92204 1-280).
T1 sequence: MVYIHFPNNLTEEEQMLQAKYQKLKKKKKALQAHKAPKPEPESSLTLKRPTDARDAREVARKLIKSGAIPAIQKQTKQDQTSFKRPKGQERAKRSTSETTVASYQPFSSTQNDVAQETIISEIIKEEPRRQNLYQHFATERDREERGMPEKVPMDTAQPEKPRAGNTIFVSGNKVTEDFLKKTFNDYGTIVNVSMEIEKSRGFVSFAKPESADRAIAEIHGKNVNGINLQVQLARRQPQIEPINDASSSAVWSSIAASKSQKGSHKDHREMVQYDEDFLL
Kind of data set: fluorescence polarization; 10 mM HEPES-NaOH pH 7.5, 100 mM NaCl, 25 mM KCl, 1 mM MgCl2, 0.02% Tween-20, 0.01% IGEPAL CA-630, 10 µg/ml yeast tRNA; 2 nM RNA, 0-2000 nM protein, 1-2 h, binding temperature not stated; gel 5% acrylamide 0.5X TBE at 4 °C. In general terms: Polarisation of emitted light reports the rotation of a fluorescent probe.

Data set [2] deals with T1, dNELF-E. Kind of data set: F-EMSA; 10 mM HEPES-NaOH pH 7.5, 100 mM NaCl, 25 mM KCl, 1 mM MgCl2, 0.02% Tween-20, 0.01% IGEPAL CA-630, 10 µg/ml yeast tRNA; 2 nM RNA, 0-2000 nM protein, 1-2 h, binding temperature not stated; gel 5% acrylamide 0.5X TBE at 4 °C.
In data set [3] the target is T2, hNELF-E (human, UniProt P18615 1-380). As to the kind of experiment: fluorescence polarization; 10 mM HEPES-NaOH pH 7.5, 100 mM NaCl, 25 mM KCl, 1 mM MgCl2, 0.02% Tween-20, 0.01% IGEPAL CA-630, 10 µg/ml yeast tRNA; 2 nM RNA, 0-2000 nM protein, 1-2 h, binding temperature not stated; gel 5% acrylamide 0.5X TBE at 4 °C.
Data set [4] has as its target T2, hNELF-E. As to the kind of experiment: F-EMSA; 10 mM HEPES-NaOH pH 7.5, 100 mM NaCl, 25 mM KCl, 1 mM MgCl2, 0.02% Tween-20, 0.01% IGEPAL CA-630, 10 µg/ml yeast tRNA; 2 nM RNA, 0-2000 nM protein, 1-2 h, binding temperature not stated; gel 5% acrylamide 0.5X TBE at 4 °C.
Setting [5] is: no predicted secondary structure.

Substitutions are numbered along the chain they refer to.

T2 sequence (P18615 whole entry): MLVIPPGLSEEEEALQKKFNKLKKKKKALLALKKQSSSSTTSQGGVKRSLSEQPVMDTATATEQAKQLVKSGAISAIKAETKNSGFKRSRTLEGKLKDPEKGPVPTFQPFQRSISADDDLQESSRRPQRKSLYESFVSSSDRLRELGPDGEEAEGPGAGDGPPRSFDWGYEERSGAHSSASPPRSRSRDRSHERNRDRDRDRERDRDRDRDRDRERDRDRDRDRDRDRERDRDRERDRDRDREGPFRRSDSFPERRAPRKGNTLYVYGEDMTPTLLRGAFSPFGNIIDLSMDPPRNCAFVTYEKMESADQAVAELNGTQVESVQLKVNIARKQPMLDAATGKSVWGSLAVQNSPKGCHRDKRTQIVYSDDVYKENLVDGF

B1: Napt1+hairpin (structured_RNA)
RNA: GGCCCCACUGAGGAUGCCCACGGGCGUCCUCAGUGGGGCCA
For B1, the Kd in data set [1] (hairpin, NBE base-paired) was 470 ± 170 nM; in data set [2] (hairpin, NBE base-paired), 810 ± 50 nM.

B2: HIV-1 TAR+A (structured_RNA)
RNA: GGUCUCUCUGGUUAGACCAGAUCUGAGCCUGAGGAGCUCUCUGGCUAACUAGGGAACC
Turning to B2, the Kd stood at 250 ± 20 nM in data set [3] (hairpin with UCU bulge), 82 ± 1 nM in data set [1] (hairpin with UCU bulge), 250 ± 20 nM in data set [4] (hairpin with UCU bulge) and 59 ± 2 nM in data set [2] (hairpin with UCU bulge).

B3: Napt25min (structured_RNA)
RNA: GGUCUCCAACUGAGGAUACCGCUCGAGGAAGCGAGUGGCGAUUUGGAGACCU
Regarding B3, the dissociation constant (Kd) came out at 30 ± 2 nM in data set [1] (putative K-turn stem-loop) and 53 ± 9 nM in data set [2] (putative K-turn stem-loop).

B4: Napt1min (structured_RNA)
RNA: GGCCCCACUGAGGAUGCCCACGGGCGAUUGGGGCCA
In the case of B4, the Kd in data set [3] (putative K-turn stem-loop) is 140 ± 10 nM; in data set [1] (putative K-turn stem-loop) it was 21 ± 7 nM; in data set [4] (putative K-turn stem-loop), 420 ± 90 nM; in data set [2] (putative K-turn stem-loop) it was 44 ± 22 nM.

B5: Napt1NBEmut (structured_RNA)
RNA: B4 RNA with C8U, U9C, G10A, G12A
On to B5, for which the Kd in data set [2] (predicted structure kept as in Napt1min) was 880 ± 170 nM.

B6: HIV-1 TAR (structured_RNA)
RNA: GGUCUCUCUGGUUAGACCAGAUCUGAGCCUGGGAGCUCUCUGGCUAACUAGGGAACC
On to B6, for which the Kd in data set [3] (hairpin with UCU bulge) came out at 200 ± 10 nM; in data set [1] (hairpin with UCU bulge) it was 130 ± 10 nM; in data set [4] (hairpin with UCU bulge), 300 ± 20 nM; in data set [2] (hairpin with UCU bulge), 350 ± 35 nM.

B7: Napt1-Δstem (ssRNA)
RNA: GGGGACUGAGGAGCAACACGGGCGAUUGGGGCCA
As for B7, the Kd was 270 ± 130 nM in data set [1] (setting [5]) and 205 ± 20 nM in data set [2] (setting [5]).

As usually defined, the Kd is the equilibrium constant for the complex coming apart.

The values above are taken from paper PMC3894171, “Defining NELF-E RNA Binding in HIV-1 and Promoter-Proximal Pause Regions”.
